{"source": "patent US20240150785A1", "binders": {"B1": {"name": "His-SUMO-BdRFS^Δ1-45 (protein, not shown: small tags and cut ends; large carriers)", "chain": "RVRAAGSSHKPGGAVVRSTLVDNKKIASESFDGPRPARSEPASPISEPSSPSKVRFTAYYGGTGSDGGDDGVVEGVKKCAERDEDDFNGESETAVLRRTASMRMRSTIKAPLMAAPDWEEKEMALRKRGDLGWYRHLDMAVLDGSVVRLWTGEVTAAVQASPRERRRAGLELHLSV"}}, "assay_in_all_cases": "co-immunoprecipitation with bead-bound His-SUMO-BdRFS^Δ1-45 from crude leaf protein extract, LC-MS/MS", "settings_in_all_cases": "scale: LFQ intensity", "key": {"[1]": {"molecular_target": "Abscisic acid-, Stress- and Ripening-induced 2 (BdASR2, Bd4g24650) (Brachypodium distachyon)"}, "[2]": {"molecular_target": "LPR2 (Low Phosphate Root 2; cupredoxin family) (Brachypodium distachyon)"}, "[3]": {"molecular_target": "NCED1 (Nine-cis Epoxycarotenoid Cleavage Dioxygenase 1) (Brachypodium distachyon)"}, "[4]": {"molecular_target": "PLAT1 (Polycystin, Lipoxygenase, Alpha-toxin, and Triacylglycerol lipase 1) (Brachypodium distachyon)"}, "[5]": {"molecular_target": "Phospholipase D α1 (BdPLD α1, Bd2g04480) (Brachypodium distachyon)"}}}
{"binder": "B1", "values": [{"measurement": "average LFQ intensity in eluate", "setting": "[1]", "value": "5.19e+07"}, {"measurement": "average LFQ intensity in eluate", "setting": "[2]", "value": "2.53e+07"}, {"measurement": "average LFQ intensity in eluate", "setting": "[3]", "value": "1.48e+07"}, {"measurement": "average LFQ intensity in eluate", "setting": "[4]", "value": "2.25e+07"}, {"measurement": "average LFQ intensity in eluate", "setting": "[5]", "value": "9.17e+06"}]}
